Measurements reported in PMC8773746.

Key:
S100P (Homo sapiens) = S100P (Homo sapiens) (UniProt P25815); details: cited from earlier work
[1] = biological target: Human erythropoietin (Epoetin β) (human) (UniProt P01588); assay: SPR; EPO immobilised by amine coupling on a ProteOn GLH chip (up to 3 000 RU); S100 or CaM as analyte (0.25–4 μM); 25 °C; 10 mM HEPES, 150 mM NaCl, 0.05% TWEEN 20, pH 7.4, 1 mM CaCl2; heterogeneous ligand model, values averaged over analyte concentrations (n = 5)
[2] = biological target: S100P (monomeric) (Homo sapiens) (UniProt P25815); details: cited from earlier work
Chain of S100P (monomeric) (Homo sapiens) (P25815 whole entry): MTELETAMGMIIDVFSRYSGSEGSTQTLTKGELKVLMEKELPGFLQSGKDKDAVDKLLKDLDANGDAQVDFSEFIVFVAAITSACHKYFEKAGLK

Chain of Human S100A2 protein (P29034 4-98): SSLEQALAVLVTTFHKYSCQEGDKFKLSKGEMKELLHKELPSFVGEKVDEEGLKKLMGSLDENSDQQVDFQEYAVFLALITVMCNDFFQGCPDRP
Chain of interleukin 11 (P20809 22-199): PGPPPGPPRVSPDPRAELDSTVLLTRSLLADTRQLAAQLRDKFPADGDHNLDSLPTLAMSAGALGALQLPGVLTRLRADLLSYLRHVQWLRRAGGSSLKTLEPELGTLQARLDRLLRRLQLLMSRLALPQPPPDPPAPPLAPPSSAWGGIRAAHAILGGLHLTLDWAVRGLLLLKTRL
Chain of S100P (Homo sapiens) (P25815 whole entry): as the sequence (P25815 whole entry) above
Chain of S100P (P25815 whole entry): as above

S100P (from UniProt P25815)
Kd (S100P (Homo sapiens)): 64 nM

Human S100A2 protein (from UniProt P29034 4-98) (natural protein)
Kd1 (heterogeneous ligand model, ligand population L1) [1]: 81 nM | Kd2 (heterogeneous ligand model, ligand population L2) [1]: 1.2 µM | ka1 (heterogeneous ligand model, ligand population L1) [1]: 2200 M⁻¹ s⁻¹ | ka2 (heterogeneous ligand model, ligand population L2) [1]: 10000 M⁻¹ s⁻¹ | kd1 (heterogeneous ligand model, ligand population L1) [1]: 0.00018 s⁻¹ | kd2 (heterogeneous ligand model, ligand population L2) [1]: 0.012 s⁻¹

interleukin 11 (from UniProt P20809)
Kd [2]: 1 nM
